Reference: patent US20260265393A1

Experiments:
[1] = target: CD27-mFc (Kangdai) (human) (UniProt P26842); assay: competition ELISA: coated CD70 (1 ug/mL), CD27-mFc fixed at 4.3 ug/mL plus antibody dilution, HRP anti-mouse Fc detection; blocked ligand CD70 (Example 3.5)
[2] = target: antigen CD27 (soluble, as used in the BLI and SPR experiments) (UniProt P26842); assay: BLI, antibody captured on AHC probe, CD27 in solution
[3] = target: human CD27 (transmembrane protein) on the cell membrane (human) (UniProt P26842); assay: flow cytometry on CHO cells expressing human CD27
Chain of human CD27 (transmembrane protein) on the cell membrane (human) (P26842 20-260): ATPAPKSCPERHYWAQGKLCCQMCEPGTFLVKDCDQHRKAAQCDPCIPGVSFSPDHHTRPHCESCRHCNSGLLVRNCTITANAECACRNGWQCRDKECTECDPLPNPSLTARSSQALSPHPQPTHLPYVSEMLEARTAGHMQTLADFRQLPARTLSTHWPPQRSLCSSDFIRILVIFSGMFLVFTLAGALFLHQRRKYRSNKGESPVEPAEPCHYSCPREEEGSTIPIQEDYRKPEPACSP

[4] = target: human CD27 (transmembrane protein) on the cell membrane (human) (UniProt P26842); assay: flow cytometry on human PBMC, antibody 5 ug/mL, CD3 FITC-A against APC-A (Example 3.3); other quadrants printed: Q2-UL 16.97 %, Q2-LL 27.93 %, Q2-LR 8.25 %
[5] = target: human CD27 (transmembrane protein) on the cell membrane (human) (UniProt P26842); assay: flow cytometry on human PBMC, antibody 5 ug/mL, CD19 PE-A against APC-A (Example 3.3); other quadrants printed: Q3-UL 15.04 %, Q3-LL 29.25 %, Q3-LR 51.11 %
[6] = target: CD27-mFc (Kangdai) (human) (UniProt P26842); assay: ELISA on coated CD27-mFc (1 ug/mL), AP anti-human Fc detection, absorption at 405/490 nm (Example 15.2)
[7] = target: CD27-mFc (Kangdai) (human) (UniProt P26842); assay: competition ELISA: CD70 coated, CD27-mFc plus antibody dilutions; competitor CD70
[8] = target: CD27-mFc (Kangdai) (human) (UniProt P26842); assay: ELISA on coated CD27-mFc

Chain of CD27-mFc (Kangdai) (human) (P26842 21-192 limits assumed): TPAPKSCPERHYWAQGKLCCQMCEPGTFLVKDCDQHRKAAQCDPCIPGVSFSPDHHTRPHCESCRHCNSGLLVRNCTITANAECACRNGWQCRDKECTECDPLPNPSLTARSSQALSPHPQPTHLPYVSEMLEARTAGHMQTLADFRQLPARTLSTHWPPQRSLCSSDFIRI
Chain of antigen CD27 (soluble, as used in the BLI and SPR experiments) (P26842 21-192 limits assumed): as above

Work on “CD27 monoclonal antibody Varlilumab (1F5)” yielded an IC50 (read off the curve) [1] of 1 µg/mL, a Kd [2] of 0.696 nM and a koff [2] of 8.75e-05 s⁻¹. The kon [2] was 126000 M⁻¹ s⁻¹, the EC50 [3] was 2.87 µg/mL and the Q2-UR, percent of gated cells that are CD3 FITC+ and APC+ (antibody-stained) [4] was 46.9%. For the same substance, the Q3-UR, percent of gated cells that are CD19 PE+ and APC+ (antibody-stained) [5] was 4.6%, the EC50 [6] was 0.032 µg/mL and the IC50 [7] was 1.31 µg/mL. The EC50 [8] was 0.0381 µg/mL.
